# Data as given in US20260001937A1, “NOVEL RECOMBINANT FIBRINOGEN VARIANTS FOR FIBRIN SEALANTS FOR SURGICAL WOUND CARE” (Julius-Maximilians-Universität Würzburg, priority 2022, published 2026).
# T1: FXIIIa (Homo sapiens, UniProt P00488)
# T1 construct: purchased CSL Behring Fibrogammin
# T1 sequence (P00488 39-732 limits assumed): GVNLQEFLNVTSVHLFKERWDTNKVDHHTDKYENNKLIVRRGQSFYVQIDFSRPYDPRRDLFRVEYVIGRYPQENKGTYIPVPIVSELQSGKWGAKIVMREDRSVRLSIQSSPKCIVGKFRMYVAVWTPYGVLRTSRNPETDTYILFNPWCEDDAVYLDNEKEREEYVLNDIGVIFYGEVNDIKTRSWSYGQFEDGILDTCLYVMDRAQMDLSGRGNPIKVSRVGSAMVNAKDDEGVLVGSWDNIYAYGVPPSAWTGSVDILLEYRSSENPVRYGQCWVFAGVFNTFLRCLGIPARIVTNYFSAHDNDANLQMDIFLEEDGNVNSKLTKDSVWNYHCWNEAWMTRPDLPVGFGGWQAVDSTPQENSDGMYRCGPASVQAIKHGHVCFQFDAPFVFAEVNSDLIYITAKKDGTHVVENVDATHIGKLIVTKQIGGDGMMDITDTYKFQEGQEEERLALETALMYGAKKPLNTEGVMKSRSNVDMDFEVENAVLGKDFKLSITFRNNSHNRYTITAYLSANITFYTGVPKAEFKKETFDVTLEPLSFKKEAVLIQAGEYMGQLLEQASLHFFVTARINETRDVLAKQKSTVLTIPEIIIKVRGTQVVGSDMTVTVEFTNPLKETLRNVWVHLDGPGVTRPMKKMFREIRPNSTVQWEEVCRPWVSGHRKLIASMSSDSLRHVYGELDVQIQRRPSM
# T2: His-rFbgH433R435
# T2 chain 1: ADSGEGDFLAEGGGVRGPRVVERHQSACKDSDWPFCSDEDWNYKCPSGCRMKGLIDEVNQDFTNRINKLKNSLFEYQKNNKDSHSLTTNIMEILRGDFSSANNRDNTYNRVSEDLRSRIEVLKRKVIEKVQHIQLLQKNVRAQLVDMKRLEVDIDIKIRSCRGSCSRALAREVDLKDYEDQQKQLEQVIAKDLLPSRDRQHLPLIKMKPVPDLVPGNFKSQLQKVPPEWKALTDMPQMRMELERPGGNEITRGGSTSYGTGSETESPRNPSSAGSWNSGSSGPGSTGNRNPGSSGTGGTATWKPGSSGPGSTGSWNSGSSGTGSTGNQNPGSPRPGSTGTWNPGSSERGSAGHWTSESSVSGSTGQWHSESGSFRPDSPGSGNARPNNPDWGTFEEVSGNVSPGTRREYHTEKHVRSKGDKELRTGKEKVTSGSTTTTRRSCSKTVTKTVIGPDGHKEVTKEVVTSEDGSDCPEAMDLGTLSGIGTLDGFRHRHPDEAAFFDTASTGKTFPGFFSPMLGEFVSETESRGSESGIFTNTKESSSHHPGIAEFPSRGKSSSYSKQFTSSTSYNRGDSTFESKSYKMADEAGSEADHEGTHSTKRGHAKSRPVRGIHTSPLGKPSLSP
# T2 chain 2: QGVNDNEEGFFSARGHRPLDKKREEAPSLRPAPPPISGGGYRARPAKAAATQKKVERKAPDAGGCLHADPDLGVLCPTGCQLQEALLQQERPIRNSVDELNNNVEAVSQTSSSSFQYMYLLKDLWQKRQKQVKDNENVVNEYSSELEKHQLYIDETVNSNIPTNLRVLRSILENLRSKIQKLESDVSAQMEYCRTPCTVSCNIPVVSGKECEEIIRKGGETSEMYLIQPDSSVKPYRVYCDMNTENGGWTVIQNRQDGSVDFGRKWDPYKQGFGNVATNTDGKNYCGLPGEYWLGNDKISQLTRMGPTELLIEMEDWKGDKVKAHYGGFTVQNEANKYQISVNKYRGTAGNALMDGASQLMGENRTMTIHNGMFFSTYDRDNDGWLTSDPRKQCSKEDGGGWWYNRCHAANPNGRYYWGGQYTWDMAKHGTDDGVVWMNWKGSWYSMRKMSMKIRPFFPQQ
# T2 chain 3: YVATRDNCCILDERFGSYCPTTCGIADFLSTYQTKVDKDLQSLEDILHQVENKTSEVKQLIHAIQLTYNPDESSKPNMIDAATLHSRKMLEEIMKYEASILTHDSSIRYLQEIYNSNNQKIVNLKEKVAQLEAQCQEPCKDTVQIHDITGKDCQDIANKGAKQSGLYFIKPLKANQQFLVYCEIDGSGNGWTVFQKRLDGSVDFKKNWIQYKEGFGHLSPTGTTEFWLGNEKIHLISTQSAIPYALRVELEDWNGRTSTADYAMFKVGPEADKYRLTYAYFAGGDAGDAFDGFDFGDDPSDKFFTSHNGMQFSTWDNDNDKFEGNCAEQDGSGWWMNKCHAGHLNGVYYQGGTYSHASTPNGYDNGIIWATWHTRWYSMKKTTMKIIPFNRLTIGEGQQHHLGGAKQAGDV
# Experiments:
# thrombin = thrombin (Homo sapiens, UniProt P00734); test: Thrombin-catalyzed fibrin polymerization, turbidity at 350 nm; assay type: biochemical; conditions: fibrinogen 0.1 mg/mL, thrombin 0.05 U/mL
# Experimental: FIG. 26: Thrombin-catalyzed fibrin polymerization. Polymerization of fibrinogen (0.1 mg/mL) was initiated by the addition of thrombin (0.05 U/mL), factor XIIIa (Fibrogammin®, CSL Behring) (50 mU/ml) as well as CaCl2 (10 mM). The change in turbidity at 350 nm was followed with time (0-3600 sec). Representative polymerization curves of plasma Fibrinogen (square) and His-rFbgH433R435 (triangle).
# Turbidity experiments were conducted on a Tecan Infinite M Plex plate reader at 37° C. A 96-well plate with a final volume of 100 μl per well was used and was experiments were performed in triplicate. The Thrombin-catalyzed fibrin polymerization of fibrinogen (0.1 mg/mL) was initiated by the addition of thrombin (0.05 U/mL), factor Xllla (Fibrogammin®, CSL Behring; 50 mU/ml) as well as CaCl2 (10 mM). The change in turbidity at 350 nm was followed over time (0-3600 sec).
# FXIIIa = molecular target: T1, FXIIIa; test: FXIIIa-catalyzed cross-linking of fibrin (SDS-PAGE, reducing); assay type: biochemical
# Experimental: FIG. 27: FXIIIa-catalyzed cross-linking of fibrinogen. Crosslinking of His-rFbgH433R435 by rFXIIIa was examined with SDS-PAGE, under reducing conditions. Fibrinogen (0.1 mg/mL) was mixed with FXIIIa (0.5 mU/mL) and thrombin (0.05 U/mL), and the reaction was incubated for the specified time at 37° C. The reduced fibrin chains (α, β, γ, cross-linked γ-γ dimer) are indicated on the right side of the gel.
# To examine cross-linking of fibrin, fibrinogen (0.1 mg/mL) was incubated at 37° C. with FXIIIa ([…]) and human-thrombin (final concentration, 0.05 U/mL) in Tris-buffer and CaCl2 (10 mM). The reactions were stopped at various times by addition of an equal volume of sodium dodecyl sulfate (SDS) sample buffer with 2-mercaptoethanol and incubation (5 min) at 90° C. Samples were separated on SDS-polyacrylamide gel electrophoresis (SDS-PAGE) and stained with Coomassie brilliant blue.
# ExpiCHO-S cells [1] = test: α-chain degradation of recombinant fibrinogen during CHO cell expression (SDS-PAGE, in-gel digest MS); assay type: cell-based, Chinese hamster; conditions: no protease inhibitor added
# Experimental: Fibrinogen variants were expressed according to the user manual (Thermo Scientific, Waltham, USA). Briefly, ExpiCHO-S™ cells (Thermo Scientific, Waltham, USA) were cultured to a final density of 10×10^6 cells/mL. Plasmids encoding for the different fibrinogen variants (0.8 μg/mL of culture) as well as ExpiFectamine™ CHO (Thermo Scientific, Waltham, USA) were diluted in 5 mL of cold OptiPro™ medium (Thermo Scientific, Waltham, USA) and incubated for 5 min at RT. The ExpiFectamine™ CHO/DNA complex was transferred to the shaker flask and incubated at 37° C. and 8% CO2 and 130 rpm. After 24 h of incubation, ExpiFectamine™ CHO Enhancer and ExpiFectamine™ CHO Feed (Thermo Scientific, Waltham, USA) were added to the culture flask. The culture flasks were transferred to an incubator at 32° C. and 8% CO2 with shaking at 130 rpm. This step was repeated after 4 days of incubation. After another incubation step of up to 7 days at 32° C. and 8% CO2 and 130 rpm cells were harvested and centrifuged at 3000 rpm for 15 minutes. […]
# Purified proteins and conjugates were analyzed using Tris-glycine SDS-PAGE either with or without the addition of β-mercaptoethanol as described before.58 Gels were stained with Coomassie Brilliant Blue G250 and documented using FluorChem FC2 imaging system (Protein Simple, Santa Clara, USA). […]
# ExpiCHO-S cells [2] = conditions: literature report (ref. 51); cited from earlier work
# [3] = test system: ExpiCHO-S cell supernatant (degradation of fibrinogen α-chain); test: Screening of inhibitors for Fbg degradation in ExpiCHO-S cell supernatant (SDS-PAGE); assay type: biochemical, Chinese hamster; conditions: commercial human Fbg 3.3 mg/mL, 37 C, several days, Aprotinin 50 μg/mL, EDTA 4 mM, 1,10 Phenanthroline 1 mM, UK 370106 100 μM
# Experimental: ExpiCHO-S cells were cultured to a density of 6×10^6 cells/mL. Afterwards, cells were centrifuged for 4 min at 1000 rpm at RT and the supernatant was collected. Commercially available fibrinogen (SigmaAldrich) was mixed with the supernatant to a final concentration of 3.3 mg/mL and a volume of 200 μl. The mixture incubated at 37° C. and 750 rpm and samples were taken at 0, 24 and 48 h. For the screening the different inhibitors were added to the mixture (final concentrations: PMSF: 1 mM; Aprotinin: 50 μg/mL; GM6001: 25 μM; EDTA: 4 mM; 1,10 Phenanthroline: 1 mM; UK 370106: 100 μM). As control fibrinogen was incubated in 10 mM Tris/HCl, 150 mM NaCl (pH 7.5) under the same conditions. For the visualization of fibrinogen degradation, 20 μL of the mixtures were analyzed using SDS-PAGE.
# Commercially available human Fbg was incubated with the supernatant taken from the CHO cells used for the expression and incubated the protein at 37 C for several days.
# His-rFbgH433R435 = molecular target: T2, His-rFbgH433R435
molecule,measurement,setting,value
"His-rFbgH433R435: Aα, Bβ- and γ-chain fibrinogen; α-chain L433H, T435R (SEQ ID 79), γ-chain K88H, K111H, K382H, K399H (SEQ ID 80)",thrombin-induced fibrin polymerization compared with control (pFbg),"thrombin; factor XIIIa 50 mU/ml, CaCl2 10 mM, 37° C., 0-3600 sec",slightly reduced
same,absorption in fibrin polymerization compared with control (pFbg),thrombin; turbidity 350 nm,comparable
same,lag time of fibrin polymerization compared with control (pFbg),thrombin; turbidity 350 nm,similar
same,formation of functional fibrin gels,FXIIIa; conclusion from polymerization and cross-linking experiments,forms functional fibrin gels
same,incubation time after which cross-linked γ-γ-dimer bands were visible,"FXIIIa; fibrinogen 0.1 mg/mL, FXIIIa 0.5 U/mL, thrombin 0.05 U/mL, CaCl2 10 mM, 37° C.",5 min
same,α-chain degradation during CHO cell protein expression,ExpiCHO-S cells [1],not detectable
aprotinin,effect of inhibitor addition during CHO cell expression on proteolytic degradation of the fibrinogen α-chain,ExpiCHO-S cells [2],did inhibit proteolytic degradation
same,state of the Fbg α-chain after incubation with CHO cell supernatant plus inhibitor,[3],truncated α-chain is also visible
"factor XIIIa (Fibrogammin, CSL Behring) (protein) GVNLQEFLNVTSVHLFKERWDTNKVDHHTDKYENNKLIVRRGQSFYVQIDFSRPYDPRRDLFRVEYVIGRYPQENKGTYIPVPIVSELQSGKWGAKIVMREDRSVRLSIQSSPKCIVGKFRMYVAVWTPYGVLRTSRNPETDTYILFNPWCEDDAVYLDNEKEREEYVLNDIGVIFYGEVNDIKTRSWSYGQFEDGILDTCLYVMDRAQMDLSGRGNPIKVSRVGSAMVNAKDDEGVLVGSWDNIYAYGVPPSAWTGSVDILLEYRSSENPVRYGQCWVFAGVFNTFLRCLGIPARIVTNYFSAHDNDANLQMDIFLEEDGNVNSKLTKDSVWNYHCWNEAWMTRPDLPVGFGGWQAVDSTPQENSDGMYRCGPASVQAIKHGHVCFQFDAPFVFAEVNSDLIYITAKKDGTHVVENVDATHIGKLIVTKQIGGDGMMDITDTYKFQEGQEEERLALETALMYGAKKPLNTEGVMKSRSNVDMDFEVENAVLGKDFKLSITFRNNSHNRYTITAYLSANITFYTGVPKAEFKKETFDVTLEPLSFKKEAVLIQAGEYMGQLLEQASLHFFVTARINETRDVLAKQKSTVLTIPEIIIKVRGTQVVGSDMTVTVEFTNPLKETLRNVWVHLDGPGVTRPMKKMFREIRPNSTVQWEEVCRPWVSGHRKLIASMSSDSLRHVYGELDVQIQRRPSM","FXIIIa-catalyzed cross-linking of gamma-chains, reducing SDS-PAGE",His-rFbgH433R435,"the cross-linked γ-γ-dimer bands of rFbgH433R435 were visible after 5 min, indicating rapid lateral linkage"
